The source of these data is article PMC11047111 (Proceedings of the National Academy of Sciences of the …, 2024).

One may read the stoichiometry N as a count of units in the complex or per binding partner.

The data set “SEC” deals with the molecule itself. The data set is described as follows: SEC. (In general: SEC sorts molecules by how far they enter the pores of the column.)
The target in data set [1] is CUL3^NTD (N-terminal domain of cullin 3, residues 1 to 381) (UniProt Q13618 1-381). The data set is described as follows: BLI.
Sequence of CUL3^NTD (N-terminal domain of cullin 3, residues 1 to 381) (Q13618 1-381): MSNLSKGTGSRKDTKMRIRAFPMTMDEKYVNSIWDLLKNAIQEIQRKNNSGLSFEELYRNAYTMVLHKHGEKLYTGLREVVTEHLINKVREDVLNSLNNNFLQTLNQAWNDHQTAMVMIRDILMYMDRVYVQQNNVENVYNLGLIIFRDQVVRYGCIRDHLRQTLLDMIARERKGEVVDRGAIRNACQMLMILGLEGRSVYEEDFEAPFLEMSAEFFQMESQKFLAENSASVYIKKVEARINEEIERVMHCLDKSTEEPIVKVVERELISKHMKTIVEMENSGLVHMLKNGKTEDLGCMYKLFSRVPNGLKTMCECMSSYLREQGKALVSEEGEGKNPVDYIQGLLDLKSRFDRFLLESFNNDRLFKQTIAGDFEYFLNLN

B1: KCTD5 (natural protein)
chain: MAENHCELLSPARGGIGAGLGGGLCRRCSAGLGALAQRPGSVSKWVRLNVGGTYFLTTRQTLCRDPKSFLYRLCQADPDLDSDKDETGAYLIDRDPTYFGPVLNYLRHGKLVINKDLAEEGVLEEAEFYNITSLIKLVKDKIRERDSKTSQVPVKHVYRVLQCQEEELTQMVSTMSDGWKFEQLVSIGSSYNYGNEDQAEFLCVVSKELHNTPYGTASEPSEKAKILQERGSRM
In the case of B1, in the data set “SEC”, the “stoichiometry N” value amounted to 5.

B2: KCTD5 L161R (natural protein)
chain: MAENHCELLSPARGGIGAGLGGGLCRRCSAGLGALAQRPGSVSKWVRLNVGGTYFLTTRQTLCRDPKSFLYRLCQADPDLDSDKDETGAYLIDRDPTYFGPVLNYLRHGKLVINKDLAEEGVLEEAEFYNITSLIKLVKDKIRERDSKTSQVPVKHVYRVRQCQEEELTQMVSTMSDGWKFEQLVSIGSSYNYGNEDQAEFLCVVSKELHNTPYGTASEPSEKAKILQERGSRM
Consider B2, for which the binding result in data set [1] is on record as “binds”.
